Where a SMILES comes first, the peptide text is derived from it. [ ]: non-standard residue; d: D form.

Data set [1] relates to persistent non-septic corneal epithelial defects. The experiment in a line: Open-label clinical trial of topical SP in canine patients with chronic non-septic corneal epithelial defects. Format: in vivo, dog. The following applies: 500 μ/ml SP topical, 8 times daily. From the text: This was a non-controlled open-label clinical trial conducted on canine patients seen in a specialty referral service for chronic, non-septic corneal epithelial defects. Criteria for inclusion included:
1. Absence of an identifiable underlying cause of the epithelial defect (lid abnormalities, decreased tear production etc.) on complete ophthalmic examination.
2. Persistence of the defect for at least 3 weeks.
3. Unresponsive to traditional therapy (topical broad spectrum antibiotics,some cases had received topical hyper-osmotic therapy, and 5 dogs had not healed after placement of a therapeutic soft contact bandage lens).
After obtaining informed consent from the owners, the dogs were taken into the hospital, an Elizabethan collar was placed (to keep the dog from rubbing its eye) and two drops of 500 μ/ml SP were instilled into the affected eye. The dogs were closely observed for any irritant effect of the drops. The dogs were then treated with one drop 8 times daily for duration of the trial.

Data set [2] relates to corneal epithelium. The experiment in a line: Corneal re-epithelialization after debridement in rabbits given systemic capsaicin. The format is in vivo, rabbit. On the procedure: In order to investigate the effect of SP treatment on corneal epithelial cell growth, capsaicin (50 mg/kg) was injected subcutaneously into young rabbits on five consecutive days in order to deplete, lower, or block the release of SP in their corneas. Lidocain was injected subcutaneously into the injection site 10 minutes prior to the capsaicin injection. Three weeks after the last injection, the rabbits were anesthetized (ketamine/rompun), topical anesthetic applied to the cornea and the corneal epithelium of both eyes debrided to the limbal margin of clear cornea. The corneas were stained 2× daily with fluorescein and photographed using a cobalt filter to monitor re-epithelialization. Resultant photographs were projected onto a digitizing board and the surface area of ulceration determined. […] Clinically, the capsaicin treated rabbits differed from the control rabbits only in their impaired ability to re-epithelialize the denuded stroma.

The subject of data set [3] is corneal epithelium. The experiment in a line: Morphological examination of adherence of regenerated corneal epithelium. The format is in vivo, rabbit. The following applies: after healing of the cornea; masked specimens; systemic capsaicin, or topical enkephalinase in normal rabbits. From the text:
For both capsaicin-treated rabbits and those treated with topical enkephalinase, regenerated epithelial layers could be easily rubbed off as a sheet of cells after healing of the cornea. This was not found in the control rabbits. Specimens from the various treatment groups were masked and morphologically examined to determine the nature of epithelial adherence. […] Thus, it appears that SP and other neuropeptides contribute to the attachment of epithelial cells during wound healing. Such contribution may take the form of elaboration of extracellular matrices (e.g., fibronectin) as well as development of cellular attachment mechanism, which activity would be in addition to their mitogenic activity in promoting cellular proliferation.

The subject of data set [4] is epithelial cells. The experiment in a line: SP analogs and fragment: stimulation of DNA synthesis / cell growth. Format: cell-based. On the procedure: Several SP analogs were also tested for their ability to stimulate DNA synthesis. An SP analog where norleucine is substituted for methionine at the C-terminus was tested (Nle-SP). Norleucine is a structural analog of methionine where the sulfur is replaced with a CH2 group.

Data set [5] deals with corneal epithelium. The experiment in a line: Corneal re-epithelialization after debridement in non-capsaicin rabbits treated with topical enkephalinase. The format is in vivo, rabbit. On the procedure:
To evaluate the effect of SP depletion using another model, the corneal epithelium was removed from non-capsaicin treated rabbits as described above. Enkephalinase (which breaks down SP) was administered 4× daily to one eye of each bilaterally wounded rabbit. The fellow eye received vehicle only 4× daily. […] FIG. 4 underestimates the time course of epithelial healing of both capsaicin treated rabbits and enkephalinase treated corneas for many of these corneas had not re-epithelialized at the termination of the experiments. In 12 rabbits, the enkephalinase treated eye always took longer to heal. In FIG. 5, typical plots for one rabbit (the other 11 rabbits gave essentially the same results) of wound area with time are presented. The solid line represents the enkephalinase-treated eye while the broken line represents the control without enkephalinase. In each case the enkephalinase treated eye and the vehicle treated eye appeared to heal at the same rate for the first 80 to 90 hours. […] The initial healing rate was probably due to migration of pre-existing cells onto the peripheral wound. After 80 to 90 hours synthesis of new cells is required in order to completely cover the wound. […]

Data set [6] deals with epithelial cells. The experiment in a line: Effect of enkephalinase on the ability of SP and insulin to stimulate DNA synthesis. The format is cell-based. On the procedure: Substance P (SP) was tested for its ability to stimulate cell growth in epithelial cells from both cornea and lens that were arrested in the G1 /Go phase of the cell cycle in serum free media. […] See, FIG. 1 for corneal and FIG. 2 for lens epithelial cells. To test whether this effect was due to SP, 1 μg/ml of enkephalinase (an enzyme that cleaves SP between amino acid residues 6-7, 7-8, and 9-10) was added.
In the previous experiment, the enkephalinase was added to the cells at the same time as the SP.

As to `CSCC[C@H](NC(=O)[C@H](CC(C)C)NC(=O)CNC(=O)[C@H](Cc1ccccc1)NC(=O)[C@H](Cc1ccccc1)NC(=O)[C@H](CCC(N)=O)NC(=O)[C@H](CCC(N)=O)NC(=O)[C@@H]1CCCN1C(=O)[C@H](CCCCN)NC(=O)[C@@H]1CCCN1C(=O)[C@@H](N)CCCN=C(N)N)C(N)=O` [SP, Substance P], in data set [1], the complications entry is “No complications were observed”.
In the case of `COc1cc(CNC(=O)CCCC/C=C/C(C)C)ccc1O` [capsaicin], the “time to re-epithelialize the denuded cornea” value in the data set with corneal epithelium [2] (capsaicin 50 mg/kg subcutaneously on five consecutive days, wounding three weeks later, vs 160 hours in non-capsaicin rabbits (FIG. 4)) stood at 460 h. The “clinical evidence of impaired lacrimation or other secondary phenomenon” value in the data set with corneal epithelium [2] (capsaicin treated rabbits) is recorded as “No clinical evidence”. The “adherence of regenerated corneal epithelium” value in the data set with corneal epithelium [3] was “poorly adhered”.
For `CC(C)C[C@H](NC(=O)[C@H](CC(C)C)NC(=O)[C@@H](Cc1c[nH]c2ccccc12)NC(=O)[C@H](Cc1ccccc1)NC(=O)[C@@H](Cc1c[nH]c2ccccc12)NC(=O)[C@H](CCC(N)=O)NC(=O)[C@H](CCC(N)=O)NC(=O)[C@@H]1CCCN1C(=O)[C@H](CCCCN)NC(=O)[C@@H]1CCCN1C(=O)[C@H](N)CCCNC(=N)N)C(N)=O` [spantide] (H-[dR]PKPQQ[dW]F[dW]LL-NH2), the “promotion of cellular growth” value in the data set with epithelial cells [4] is “stimulate epithelial cell growth”.
On the same count and under the same terms, to “fragment of substance P including only amino acids 5-11: fragment of substance P including only amino acids 5-11 (GlnPhePheGlyLeuMet)” belongs “active”.

B1: enkephalinase: an enzyme that cleaves SP between amino acid residues 6-7, 7-8, and 9-10 (protein, UniProt P08473 2-750, looked up)
Neprilysin: GKSESQMDITDINTPKPKKKQRWTPLEISLSVLVLLLTIIAVTMIALYATYDDGICKSSDCIKSAARLIQNMDATTEPCTDFFKYACGGWLKRNVIPETSSRYGNFDILRDELEVVLKDVLQEPKTEDIVAVQKAKALYRSCINESAIDSRGGEPLLKLLPDIYGWPVATENWEQKYGASWTAEKAIAQLNSKYGKKVLINLFVGTDDKNSVNHVIHIDQPRLGLPSRDYYECTGIYKEACTAYVDFMISVARLIRQEERLPIDENQLALEMNKVMELEKEIANATAKPEDRNDPMLLYNKMTLAQIQNNFSLEINGKPFSWLNFTNEIMSTVNISITNEEDVVVYAPEYLTKLKPILTKYSARDLQNLMSWRFIMDLVSSLSRTYKESRNAFRKALYGTTSETATWRRCANYVNGNMENAVGRLYVEAAFAGESKHVVEDLIAQIREVFIQTLDDLTWMDAETKKRAEEKALAIKERIGYPDDIVSNDNKLNNEYLELNYKEDEYFENIIQNLKFSQSKQLKKLREKVDKDEWISGAAVVNAFYSSGRNQIVFPAGILQPPFFSAQQSNSLNYGGIGMVIGHEITHGFDDNGRNFNKDGDLVDWWTQQSASNFKEQSQCMVYQYGNFSWDLAGGQHLNGINTLGENIADNGGLGQAYRAYQNYIKKNGEEKLLPGLDLNHKQLFFLNFAQVWCGTYRPEYAVNSIKTDVHSPGNFRIIGTLQNSAEFSEAFHCRKNSYMNPEKKCRVW
For the molecule B1, the “healing rate (wound area with time)” value in the data set on corneal epithelium [5] (after the first 80 to 90 hours (FIG. 5)) is “slow dramatically”. Moreover, the “re-epithelialization compared to fellow eye treated with vehicle” value in the data set on corneal epithelium [5] (enkephalinase 4× daily to one eye, 12 rabbits (FIG. 4)) is reported as “markedly impair re-epithelialization”. Also, the “effect of enkephalinase on SP-stimulated DNA synthesis” value in the data set with epithelial cells [6] (1 μg/ml enkephalinase added at the same time as SP (FIG. 3)) is listed as “destroyed all activity of SP by itself”. Besides, the “effect of enkephalinase on insulin-stimulated DNA synthesis” value in the data set with epithelial cells [6] (1 μg/ml enkephalinase, insulin alone (FIG. 3)) is on record as “did not affect the activity of insulin alone”. The “effect of enkephalinase pretreatment on the SP effect” value in the data set with epithelial cells [6] (cells pretreated 1 to 3 hours, enkephalinase then removed, especially in the presence of insulin) is “enhancement of the SP effect”. The “harmful effects on epithelial cells” value with epithelial cells [6] (enkephalinase by itself) is given as “no harmful effects”. In the data set on corneal epithelium [3], the “adherence of regenerated corneal epithelium” value is given as “poorly adhered”.

These data come from patent US5616562A, “Methods and compositions using substance P to promote wound healing” (priority 1994, dated 1997).
